The supplement of paper PMC9170038

System: MS2 coat protein
Assay: apparent KD of MS2 coat protein; designed switch direction (-1 OFF switch, 1 ON switch): 1; higher = weaker reporter binding
How it was run: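 Designed RNA switches were transcribed on Illumina chips by stalled E. coli RNA polymerase and titrated with SNAP-549-labelled MS2 coat protein from 0.7 or 1.5 nM, doubling to 3 µM. Step length ran from 0.8–1.5 h at the lowest concentration to 10–20 min at the highest. The apparent KD is the median over clusters for each design, from curve-fitted normalised cluster fluorescence.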

[1] = Eterna round: R95, input ligand: FMN 200 uM
[2] = Eterna round: R95, input ligand: microRNA oligo, concentration not stated
[3] = Eterna round: R95, input ligand: none
[4] = input ligand: microRNA oligo, concentration not stated

Sequence | apparent KD of MS2 coat protein [1] | apparent KD of MS2 coat protein [2] | apparent KD of MS2 coat protein [3] | apparent KD of MS2 coat protein (input ligand: FMN 200 uM) | apparent KD of MS2 coat protein [4] | apparent KD of MS2 coat protein (input ligand: none)
GAGGGAUGAGCGUAGGAUAUAGGAGAAGUGACAUGAGGAUCACCCAUGUGGUAUGAGGGAUGAUUCUAGAAGGACGCGGUAGGAG [JR_SS2_Sub062] (puzzle: Same State 2) | 154 nM | 494 nM | 116 nM | – | – | –
GAGUAGUUGAAAGGAUAUCCAUUGUUAUAGAAUGGAGAAGGUUCUAACAUGAGGAUCACCCAUGUAGGACUAUUCCUGUGUAUC [Parity 81 - Jieux - Same State NG 1] (Eterna round: R96, puzzle: Same State NG 1) | – | – | – | 9.98 nM | 8.16 nM | 11.9 nM
GAGUAGUUGAUAGGAUAUUGAUUGUUAUAGGAUCAAGAAGGAUCUAACAUGAGGAUCACCCAUGUAGGACUAUUCCUGUGUAUC [Parity 84 - Jieux - Same State NG 1] (Eterna round: R96, puzzle: Same State NG 1) | – | – | – | – | 16.9 nM | –
GAGUAUGAACUACAGGAUAUAUAGCAGAUGACAUGAGGAUCACCCAUGUAAGAGAAAGGAGGGAAAUAGAAGGGUAUGGGAGGUG [JR_SS2_Sub036] (puzzle: Same State 2) | 37.6 nM | 33.9 nM | 31.4 nM | – | – | –
GAGUGACGAUUAGGAUAUAUAGUGAUAAUGAUAAUAGAAGGAAUUGACAUGAGGAUCACCCAUGUAGGACUAAUCCAGAGAGAG [Parity 28 - Jieux - Same State NG 1] (Eterna round: R96, puzzle: Same State NG 1) | – | – | – | – | 44.9 nM | –
GAGUGAUGGGUUAGUAACUGCUGGGAAGGACAUGAGGAUCACCCAUGUGAGUAACGAGCUUGUGCUCGUCUUAUAAG [JR_SHM208A_Sub022] (puzzle: Sensor for hsa-mir-208a) | 388 nM | 192 nM | 425 nM | – | – | –
GAGUGGAGGAAAGGAUAUACAAUGAUAAUCACAGUAGAAGGUUCUAACAUGAGGAUCACCCAUGUAGGACUAUACCUGAGAGAA [Parity 47 - Jieux - Same State NG 1] (Eterna round: R96, puzzle: Same State NG 1) | – | – | – | 9.26 nM | 10.8 nM | 15.5 nM
GAGUGGAGGAGAGGAUAUACAAUGAUAAUCACUGUAGAAGGUUCUAACAUGAGGAUCACCCAUGUAGGACUAUUCCUGAGAGUU [Parity 51 - Jieux - Same State NG 1] (Eterna round: R96, puzzle: Same State NG 1) | – | – | – | – | 9.46 nM | –
GAGUGGUGAAAAGGAUAUGCAUUGUUAUUCACUGUAGAAGGUUUUAACAUGAGGAUCACCCAUGUAGGACUAUUCCUGUGUUUU [Parity 60 - Jieux - Same State NG 1] (Eterna round: R96, puzzle: Same State NG 1) | – | – | – | 17.6 nM | 14.8 nM | 23.2 nM
GAGUUUGAACUACAGGAUAUAUAGCAGAUGACAUGAGGAUCACCCAUGUAAGAGAAAGGAGGGAAAUAGAAGGGUAUGGGAGGUG [JR_SS2_Sub035] (puzzle: Same State 2) | 33.7 nM | 20.4 nM | 24.3 nM | – | – | –
GAUAAACAUGAGGAUCACCCAUGUAAUAAUAUGGGAGGAUAUCAGAAUGUAUGUAUGUAAUGAGAAGGCCUAAUAU [Mat - Same State 1 - Mod of Eli - D71] (puzzle: Same State 1) | 61.8 nM | 545 nM | 491 nM | – | – | –
GAUAUACAUGAGGAUCACCCAUGUCAUAUGACAUGAGGAUAUGUACAGACUUCGGUCUGUACAGAAGGCAUGUGUC [SS1 - 1011 Omei Mod 1] (puzzle: Same State 1) | 60.5 nM | 338 nM | 530 nM | – | – | –
GAUCGUUUGAUAGGAUAUCGCUAUACAUGAGGAUCACCCAUGUUUACCACGCUGGUUUUUCAUACCGAGAAGGAUUCUGAUGAG [salish99_SSNG02_r04_008] (Eterna round: R96, puzzle: Same State NG 2) | – | – | – | 64.8 nM | 49.7 nM | 56.1 nM
GCACAUGAGGAUCACCCAUGUGCGCUUGGUUGUCCAAGCGCACAGGAUAUACCUCCAAAUGGGAGGUAGAAGGGUGAAAAGAAG [Leones] (Eterna round: R96, puzzle: Same State NG 3) | – | – | – | 15.1 nM | 11.1 nM | 11 nM
GCAGAACAUGAGGAUCACCCAUGUCUCUAAAGUCGAGGAUAUGGGCAGGUUAUAUCCGAACCAGAAGGCGAUCUGC [SS1 Teenbexe 13] (puzzle: Same State 1) | – | 108 nM | – | – | – | –
GCAGGACAUGAGGAUCACCCAUGUUCCAAAUAUUGAGGAUAUGGAUACGGUAUAUCCGAACCAGAAGGCAACCUGC [SS1 Teenbexe 21] (puzzle: Same State 1) | 25.3 nM | 22.1 nM | 23.3 nM | – | – | –

Sequence | apparent KD of MS2 coat protein [1] | apparent KD of MS2 coat protein [2] | apparent KD of MS2 coat protein [3] | apparent KD of MS2 coat protein (input ligand: FMN 200 uM) | apparent KD of MS2 coat protein [4] | apparent KD of MS2 coat protein (input ligand: none)
GCAUCACAUGAGGAUCACCCAUGUCUUCGGAGUCGAGGAUAUGGUCACUGUAAACAGUGGCCAGAAGGCGAGGUGC [SS1 - Son of Teenbexe v4] (puzzle: Same State 1) | – | 53.4 nM | – | – | – | –
GCCAACUCAUGAGGAUAUGGCACCUUAAUGGUGCCAGAAGGCAUGUCUAUUGACAUGAGGAUCACCCAUGUAUUUUUGUUGGCA [Fiskers NG1ss - 26] (Eterna round: R96, puzzle: Same State NG 1) | – | – | – | 120 nM | 750 nM | 1210 nM
GCCAUCGCAUGAGGAUAUGGCACCGAAACGGUGCCAGAAGGCAUGUCGUAAGACAUGAGGAUCACCCAUGUAGUUAAGAUGGCA [Mat - Same State NG 1 - JL mod - D91] (Eterna round: R96, puzzle: Same State NG 1) | – | – | – | 215 nM | 229 nM | 907 nM
GCCCGUAGCCACAUGAGGAUCACCCAUGUGCAGUUGUGAUCCGAGGAUAUUGCUAUUUGAGAUAGUAAGAAGGUGGACCGCGGU [Eternabot solution 31] (Eterna round: R96, puzzle: Same State NG 3) | – | – | – | 109 nM | 84.4 nM | 143 nM
GCCGCAAGGGCAGGAUAUGGGUCCAGAACGCAAAUGCGCUCUGGUACAUGAGGAUCACCCAUGUCCCAGAAGGGCCCAAGCGGC [Isusara] (Eterna round: R96, puzzle: Same State NG 2) | – | – | – | 16.5 nM | 96.5 nM | 106 nM
GCCGCAAGGGCAGGAUAUGGGUCCAGAGCGCAAAUGCGCUCUGGUACAUGAGGAUCACCCAUGUCCCAGAAGGGCCCAAGCGAC [Xeatvearbe] (Eterna round: R96, puzzle: Same State NG 2) | – | – | – | 14.6 nM | 88.6 nM | 130 nM
GCCGCAGGCUAAGGAUAUUGCGUGAUCACAUGAGGAUCACCCAUGUCAAUAUCGCUACGGAAGAGCAAGAAGGUAGCGCCGCAG [Eternabot solution 10] (Eterna round: R96, puzzle: Same State NG 2) | – | – | – | 188 nM | 182 nM | 127 nM
GCCGCGAAGCGAGGAUAUACUGUCCGAGAGCCGCAAACAUGAGGAUCACCCAUGUAGGUGAGACCGUAGAAGGCGUAAGCGCAA [Eternabot solution 19] (Eterna round: R96, puzzle: Same State NG 2) | – | – | – | 46 nM | 235 nM | 331 nM
GCCGCGUUUCGCGCCUACAUGAGGAUCACCCAUGUAUGUAGGCAGGAUAUCGUUUGCUUUGCAAACGAGAAGGGCUGUAGUGGC [salish99_SSNG3_R04_008] (Eterna round: R96, puzzle: Same State NG 3) | – | – | – | 70.4 nM | 165 nM | 188 nM
GCCGCGUUUCGCGCCUACAUGAGGAUCACCCAUGUAUGUAGGCAGGAUAUCGUUUGCUUUGCAAACGAGAAGGGCUGUUGUGGC [salish99_SSNG3_R04_009] (Eterna round: R96, puzzle: Same State NG 3) | – | – | – | 79.5 nM | 217 nM | 227 nM
GCCGGCUGGUGAGGAUAUGGCACCUUAUUGGUGCCAGAAGGCAUGUCAAUUGACAUGAGGAUCACCCAUGUAUUAUCGUUGGCG [salish99_SSNG1_r04_607] (Eterna round: R96, puzzle: Same State NG 1) | – | – | – | 725 nM | 325 nM | 370 nM
GCCUCUGCUCCACAGGAUAUGCGCUGUUGUACAUGAGGAUCACCCAUGUGCAGCCGACCAGAGCUGCAGAAGGGUGAGAGAGAGU [Atisanesxe] (puzzle: Same State 2) | 28.6 nM | 253 nM | 243 nM | – | – | –
GCGAAGAGGUAAGGAUAUUCAUGGCGUAGACAUGAGGAUCACCCAUGUAGGAGACGAAUUAGAAGGGAGAAGGUACCAGGACGC [AK SSNG2-V2-17] (Eterna round: R96, puzzle: Same State NG 2) | – | – | – | 60.9 nM | 101 nM | 187 nM
GCGACGGCGAAAGGAUAUCAAAAUCAACAGUGUUGAGAAGGUUCUCCGAGGGUCGCACAUGAGGAUCACCCAUGUCGCGAAUCU [Eternabot solution 35] (Eterna round: R96, puzzle: Same State NG 1) | – | – | – | – | 9.02 nM | –
GCGAGCGUACUUGCAACAUGAGGAUCACCCAUGUUAACUGGACAGGAUAUGGUACCGUUUCGGUACCAGAAGGGUUUUACAUGU [JL SSNG3 3.65] (Eterna round: R96, puzzle: Same State NG 3) | – | – | – | 35.1 nM | 29.1 nM | 35.6 nM
